How the values were obtained:
[1] = biological target: Myc-Vps34/PtdIns3K (Myc-tagged hVps34) (human, UniProt Q8NEB9 1-887); assay: cell-based or functional assay
[2] = biological target: T1, ATG14L-EGFP (full-length mouse ATG14L tagged with EGFP at the C-terminus) (mouse, UniProt Q8CDJ3 1-492); assay: co-IP with anti-GFP antibody from co-transfected HEK 293T cells (FIG. 11)
T1 construct: Mouse cDNA cloned into pEGFP-N3 and expressed in HEK 293/293T or HeLa cells; also called EGFP-tagged ATG14L; GFP-tagged full-length ATG14L; not shown: EGFP tag at the C-terminus (pEGFP-N3 vector)

[3] = biological target: T2, Rubicon-EGFP (full-length mouse Rubicon tagged with EGFP at the C-terminus) (mouse, UniProt Q80U62 1-956); assay: as above
T2 construct: also called EGFP-tagged Rubicon; GFP-tagged full-length Rubicon; not shown: EGFP tag at the C-terminus (pEGFP-N3 vector)
T2 sequence: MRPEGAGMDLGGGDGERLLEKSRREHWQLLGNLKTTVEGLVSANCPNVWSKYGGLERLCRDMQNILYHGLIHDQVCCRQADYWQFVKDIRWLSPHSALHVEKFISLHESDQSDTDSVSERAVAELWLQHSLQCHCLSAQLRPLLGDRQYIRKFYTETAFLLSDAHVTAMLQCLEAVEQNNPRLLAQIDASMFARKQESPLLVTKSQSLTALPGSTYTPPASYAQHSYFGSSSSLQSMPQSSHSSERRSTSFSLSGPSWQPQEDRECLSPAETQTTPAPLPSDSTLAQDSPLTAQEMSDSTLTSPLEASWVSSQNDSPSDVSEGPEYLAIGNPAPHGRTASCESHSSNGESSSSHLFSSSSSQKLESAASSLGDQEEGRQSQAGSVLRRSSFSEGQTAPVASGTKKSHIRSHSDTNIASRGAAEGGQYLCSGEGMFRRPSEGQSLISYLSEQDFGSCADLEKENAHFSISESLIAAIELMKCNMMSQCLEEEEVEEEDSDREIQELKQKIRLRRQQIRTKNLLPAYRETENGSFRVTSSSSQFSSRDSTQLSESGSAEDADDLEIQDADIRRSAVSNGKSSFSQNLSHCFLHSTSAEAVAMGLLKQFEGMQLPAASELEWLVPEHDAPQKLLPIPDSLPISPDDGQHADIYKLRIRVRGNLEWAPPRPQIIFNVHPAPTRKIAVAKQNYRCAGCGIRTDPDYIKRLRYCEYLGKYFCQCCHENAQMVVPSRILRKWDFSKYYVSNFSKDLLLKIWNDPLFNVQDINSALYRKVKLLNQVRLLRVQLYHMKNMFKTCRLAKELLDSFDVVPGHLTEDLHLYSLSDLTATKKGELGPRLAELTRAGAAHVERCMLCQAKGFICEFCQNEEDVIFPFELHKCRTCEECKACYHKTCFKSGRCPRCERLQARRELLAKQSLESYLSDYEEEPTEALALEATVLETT

[4] = biological target: T1, ATG14L-EGFP (full-length mouse ATG14L …); assay: co-IP with anti-GFP antibody from co-transfected HEK 293T cells; anti-FLAG blot
Source text: (§1) FIG. 2A-E. Mapping of the binding domains that mediate the interaction between Beclin 1 and ATG14L/Rubicon. (A) Schematic representations of Beclin 1, ATG14L and Rubicon domain structures and the construction of multiple deletion mutants. The Beclin 1 mutants were tagged with FLAG at N-termini. The ATG14L or Rubicon mutants were tagged with EGFP at C-termini. (B) and (C) Domain mapping in Beclin 1 sequence required for binding ATG14L or Rubicon. HEK 293T cells were co-transfected with FLAG-tagged Beclin 1 mutant constructs and GFP-tagged full-length ATG14L […]. The immunoprecipitation was performed with anti-GFP antibody, followed by Western blotting with anti-FLAG antibody.
DNA plasmids were transfected into HEK 293T cells for immunoprecipitation. For Co-immunoprecipitation experiments, two or three plasmids were transfected simultaneously in equal amount. Cells were lysed in immunoprecipitation lysis buffer (20 mM HEPES, pH7.4/1 mM MgCl2/0.25 mM CaCl2/0.2% Triton X-100/150 mM NaCl/protease inhibitor and PMSF-pepstatin/DNaseI). For immunoprecipitation with GFP, ATG14L or Rubicon antibody, Dynabeads M-270 E-proxy (Invitrogen, Carlsbad, Calif.) were conjugated with each antibody, and incubated with cell lysate at 4° C. for 2 hours. […]

[5] = biological target: T2, Rubicon-EGFP (full-length mouse Rubicon …); assay: co-IP with anti-GFP antibody from co-transfected HEK 293T cells, anti-FLAG blot
Source text: as §1
(§2) DNA plasmids were transfected into HEK 293T cells for immunoprecipitation. For Co-immunoprecipitation experiments, two or three plasmids were transfected simultaneously in equal amount. Cells were lysed in immunoprecipitation lysis buffer (20 mM HEPES, pH7.4/1 mM MgCl2/0.25 mM CaCl2/0.2% Triton X-100/150 mM NaCl/protease inhibitor and PMSF-pepstatin/DNaseI). For immunoprecipitation with GFP, ATG14L or Rubicon antibody, Dynabeads M-270 E-proxy (Invitrogen, Carlsbad, Calif.) were conjugated with each antibody, and incubated with cell lysate at 4° C. for 2 hours. After the beads were washed in ATG14L or Rubicon lysis buffer for 5 times, proteins were eluted by incubating beads in elution buffer (0.5 mM EDTA, pH8/0.5N NH₃.H₂O) at room temperature for 20 minutes and dried with vacuum speed centrifuge. For FLAG-tagged protein IP, Anti-FLAG M2 affinity resin (Sigma, St Louis, Mo.) was used and the manufacture's protocol was followed.

[6] = biological target: T3, ATG14L (endogenous, mouse tissue or NIH 3T3 cells) (mouse, UniProt Q8CDJ3 1-492); assay: co-IP of endogenous proteins with anti-ATG14L antibody from NIH 3T3 cell lysates, Western blot
T3 construct: also called BISC

[7] = biological target: T1, ATG14L-EGFP (full-length mouse ATG14L …); assay: co-IP with anti-GFP antibody from co-transfected HEK 293T cells, anti-FLAG blot
Source text: as §1, §2

Chain of Myc-Vps34/PtdIns3K (Myc-tagged hVps34) (Q8NEB9 whole entry): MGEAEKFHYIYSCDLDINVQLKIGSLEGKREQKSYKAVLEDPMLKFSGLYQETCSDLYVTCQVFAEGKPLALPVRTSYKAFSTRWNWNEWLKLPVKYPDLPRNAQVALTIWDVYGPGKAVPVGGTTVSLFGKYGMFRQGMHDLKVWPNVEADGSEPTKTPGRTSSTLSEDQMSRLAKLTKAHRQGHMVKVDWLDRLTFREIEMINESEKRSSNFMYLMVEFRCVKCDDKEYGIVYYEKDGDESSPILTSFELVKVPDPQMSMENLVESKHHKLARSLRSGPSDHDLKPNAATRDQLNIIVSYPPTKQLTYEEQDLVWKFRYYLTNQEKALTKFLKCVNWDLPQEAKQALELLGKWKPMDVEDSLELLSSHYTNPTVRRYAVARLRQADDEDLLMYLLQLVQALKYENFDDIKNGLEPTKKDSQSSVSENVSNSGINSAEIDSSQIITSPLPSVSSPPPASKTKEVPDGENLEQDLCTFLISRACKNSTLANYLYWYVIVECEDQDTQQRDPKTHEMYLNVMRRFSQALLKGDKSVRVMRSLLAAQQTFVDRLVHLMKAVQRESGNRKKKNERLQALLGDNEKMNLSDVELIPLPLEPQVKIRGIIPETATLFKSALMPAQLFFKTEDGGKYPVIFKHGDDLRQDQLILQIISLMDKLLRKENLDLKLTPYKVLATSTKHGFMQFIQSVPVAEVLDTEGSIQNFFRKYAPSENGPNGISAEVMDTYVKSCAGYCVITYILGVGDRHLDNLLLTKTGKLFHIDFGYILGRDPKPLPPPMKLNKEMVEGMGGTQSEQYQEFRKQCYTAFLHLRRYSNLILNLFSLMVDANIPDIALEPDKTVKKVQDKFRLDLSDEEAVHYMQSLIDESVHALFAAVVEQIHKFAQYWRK

B1: FLAG-ATG14L (mouse ATG14L tagged with FLAG at the N-terminus) (other, not shown: small tags and cut ends)
chain: MASPSGKGSWTPEAPGFGPRALARDLVDSVDDAEGLYVAVERCPLCNTTRRRLTCAKCVQSGDFVYFDGRDRERFIDKKERLSQLKNKQEEFQKEVLKAMEGKRLTDQLRWKIMSCKMRIEQLKQTICKGNEEMKKNSEGLLKNKEKNQKLYSRAQRHQEKKEKIQRHNRKLGDLVEKKTIDLKSHYERLARLRRSHILELTSIIFPIDEVKTSGRDPADVSSETDSAMTSSMVSKLAEARRTTYLSGRWVCDDHNGDTSISITGPWISLPNNGDYSAYYNWVEEKKTTQGPDMEHNNPAYTISAALGYATQLVNIVSHILDINLPKKLCNSEFCGENLSKQKLTRAVRKLNANILYLCSSQHVNLDQLQPLHTLRNLMHLVSPRSEHLGRSGPFEVRADLEESMEFVDPGVAGESDASGDERVSDEETDLGTDWENLPSPRFCDIPSQPVEVSQSQSTQVSPPIASSSAGGMISSAAASVTSWFKAYTGHR
For B1, the “Vps34 kinase activity (radioactive PtdIns(3)P normalized against immunoprecipitated Myc-tagged Vps34), over-expressed ATG14L against empty vector, in the presence of Beclin 1” value [1] was 2.5 ratio.

B2: FLAG-Rubicon (mouse Rubicon tagged with FLAG at the N-terminus) (other, not shown: small tags and cut ends)
chain: T2 sequence
B2 was tested, and the “Vps34 kinase activity (radioactive PtdIns(3)P normalized against immunoprecipitated Myc-tagged Vps34), over-expressed Rubicon against empty vector, in the absence of Beclin 1” value [1] was 0.58 ratio.

B3: Beclin 1-AsRed (other)
chain: MEGSKASSSTMQVSFVCQRCSQPLKLDTSFKILDRVTIQELTAPLLTTAQAKPGETQEEEANSGEEPFIETRQDGVSRRFIPPARMMSTESANSFTLIGEASDGGTMENLSRRLKVTGDLFDIMSGQTDVDHPLCEECTDTLLDQLDTQLNVTENECQNYKRCLEILEQMNEDDSEQLQRELKELALEEERLIQELEDVEKNRKVVAENLEKVQAEAERLDQEEAQYQREYSEFKRQQLELDDELKSVENQVRYAQIQLDKLKKTNVFNATFHIWHSGQFGTINNFRLGRLPSVPVEWNEINAAWGQTVLLLHALANKMGLKFQRYRLVPYGNHSYLESLTDKSKELPLYCSGGLRFFWDNKFDHAMVAFLDCVQQFKEEVEKGETRFCLPYRMDVEKGKIEDTGGSGGSYSIKTQFNSEEQWTKALKFMLTNLKWGLAWVSSQFYNK
notes: Beclin 1 cDNA from mouse brain cloned into pAs-Red; not shown: AsRed fluorescent protein tag (pAs-Red vector)
B3: binds [2]; binds [3].

B4: FLAG-Beclin 1 CCD domain (aa 144-269) (other)
chain: DQLDTQLNVTENECQNYKRCLEILEQMNEDDSEQLQRELKELALEEERLIQELEDVEKNRKVVAENLEKVQAEAERLDQEEAQYQREYSEFKRQQLELDDELKSVENQVRYAQIQLDKLKKTNVFN
notes: aa 144-269 is printed for the CCD domain of Beclin 1; also called C (Coiled-coil domain); FLAG-C; not shown: FLAG tag at the N-terminus (pCMV-FLAG2 vector)
B4: binds [4]; no binding [5].

B5: endogenous Beclin 1 of NIH 3T3 cells / mouse tissue (other)
chain: B3 chain
notes: NIH 3T3 is a mouse cell line (inference)
B5: binds [6].

B6: FLAG-Beclin 1 BD domain (aa 1-150) (other)
chain: MEGSKASSSTMQVSFVCQRCSQPLKLDTSFKILDRVTIQELTAPLLTTAQAKPGETQEEEANSGEEPFIETRQDGVSRRFIPPARMMSTESANSFTLIGEASDGGTMENLSRRLKVTGDLFDIMSGQTDVDHPLCEECTDTLLDQLDTQL
notes: not shown: FLAG tag at the N-terminus (pCMV-FLAG2 vector)
B6: no binding [7]; no binding [5].

B7: FLAG-Beclin 1 ECD domain (aa 244-448) (other)
chain: ELKSVENQVRYAQIQLDKLKKTNVFNATFHIWHSGQFGTINNFRLGRLPSVPVEWNEINAAWGQTVLLLHALANKMGLKFQRYRLVPYGNHSYLESLTDKSKELPLYCSGGLRFFWDNKFDHAMVAFLDCVQQFKEEVEKGETRFCLPYRMDVEKGKIEDTGGSGGSYSIKTQFNSEEQWTKALKFMLTNLKWGLAWVSSQFYNK
notes: also called E (Evolutionarily conserved domain); FLAG-E; not shown: FLAG tag at the N-terminus (pCMV-FLAG2 vector)
B7: no binding [7]; no binding [5].

B8: FLAG-Beclin 1 BC (Bcl2-binding domain and Coiled-coil domain) (other)
chain: MEGSKASSSTMQVSFVCQRCSQPLKLDTSFKILDRVTIQELTAPLLTTAQAKPGETQEEEANSGEEPFIETRQDGVSRRFIPPARMMSTESANSFTLIGEASDGGTMENLSRRLKVTGDLFDIMSGQTDVDHPLCEECTDTLLDQLDTQLNVTENECQNYKRCLEILEQMNEDDSEQLQRELKELALEEERLIQELEDVEKNRKVVAENLEKVQAEAERLDQEEAQYQREYSEFKRQQLELDDELKSVENQVRYAQIQLDKLKKTNVFN
notes: also called FLAG-BC; not shown: FLAG tag at the N-terminus (pCMV-FLAG2 vector)
B8: no binding [5].
